From patent US20190389914A1 (University of California, published 2019)
Residue numbers refer to the chain shown, from its start.

Columns and labels:
[1] = target: T1, GAL4 activation domain fusion to HAB1 E203W (Arabidopsis thaliana (Mouse-ear cress), UniProt Q9CAJ0 4-511); assay: Y2H, beta-gal staining
T1 construct: Mutant of the pACT-HAB1 template, which lacks the three N-terminal amino acids of HAB1
T1 sequence: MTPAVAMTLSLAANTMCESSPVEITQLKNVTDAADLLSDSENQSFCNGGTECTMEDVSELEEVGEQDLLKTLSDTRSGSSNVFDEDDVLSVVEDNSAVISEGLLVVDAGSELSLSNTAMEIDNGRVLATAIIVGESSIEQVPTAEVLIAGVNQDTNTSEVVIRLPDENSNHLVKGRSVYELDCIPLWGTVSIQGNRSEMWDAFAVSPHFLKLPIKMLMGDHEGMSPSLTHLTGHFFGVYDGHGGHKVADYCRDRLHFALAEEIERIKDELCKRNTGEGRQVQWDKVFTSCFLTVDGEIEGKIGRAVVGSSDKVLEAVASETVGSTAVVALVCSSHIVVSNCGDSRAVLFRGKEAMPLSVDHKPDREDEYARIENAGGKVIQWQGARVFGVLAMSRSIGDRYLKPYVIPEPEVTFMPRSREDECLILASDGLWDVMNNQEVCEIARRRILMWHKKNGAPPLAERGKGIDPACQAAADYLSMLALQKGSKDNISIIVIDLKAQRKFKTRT

[2] = target: T2, GAL4 activation domain fusion to HAB1 I383G (Arabidopsis thaliana (Mouse-ear cress), UniProt Q9CAJ0 4-511); assay: Y2H, beta-gal staining
T2 construct: Mutant of the pACT-HAB1 template, which lacks the three N-terminal amino acids of HAB1
T2 sequence: T1 sequence with W200E, I380G

B1: GAL4 DNA binding domain fusion to PYR1 (pBD-PYR1), wild type (receptor)
chain: MKLLSSIEQACDICRLKKLKCSKEKPKCAKCLKNNWECRYSPKTKRSPLTRAHLTEVESRLERLEQLFLLIFPREDLDMILKMDSLQDIKALLTGLFVQDNVNKDAVTDRLASVETDMPLTLRQHRISATSSSEESSNKGQRQLTVSMPSELTPEERSELKNSIAEFHTYQLDPGSCSSLHAQRIHAPPELVWSIVRRFDKPQTYKHFIKSCSVEQNFEMRVGCTRDVIVISGLPANTSTERLDILDDERRVTGFSIIGGEHRLTNYKSVTTVHRFEKENRIWTVVLESYVVDMPEGNSEDDTRMFADTVVKLNLQKLATVAEAMARNSGDGSGSQVT
notes: Yeast two-hybrid bait expressed in S. cerevisiae; also called WT
Q: Which results are given for B1?
A: binding result [1]: no binding (tested: 10 µM ABA); binding result [2]: no binding (tested: 10 µM ABA)
